Reference: US20230065495A1, “MULTIPARTITE AND CIRCULARLY PERMUTED BETA-BARREL POLYPEPTIDES AND METHODS FOR THEIR USE” (University of Washington, priority 2020, published 2023)

Legend:
[1] = Chromophore titration with DFHBI-1T; type: binding
Experimental: (§1) Fluorescence endpoints were measured on a Synergy Neo2™ hybrid multi-mode reader (BioTek) in flat bottom, black polystyrene, non-binding surface 96-well microplates (Corning 3650). In measuring chromophore binding affinities (FIG. 6d,e), mFAP2, mFAP2a, and mFAP2b, and mFAP10 were produced by large-scale protein purification and SEC purification^9. Proteins were aliquoted in eight technical replicates in 200 μL final volumes to 20.0 nM final concentration in ten serial dilutions (√{square root over (10)} dilution factor) of DFHBI starting from 31.6 μM DFHBI or 31.6 μM DFHBI-1T final concentrations, including an eleventh condition without chromophore. Fluorescence was excited at λex=468 nm and fluorescence emission measured at λem=530 nm. Background fluorescence endpoints of wells with identical chromophore concentrations but purified protein replaced with an identical volume of high salt Tev cleavage buffer were measured, and fluorescence endpoints subtracted from those measured with protein. Background-subtracted data were averaged and the means normalized from 0 to 1 and fit to a single binding site isotherm function using non-linear least squares fitting to obtain a fitted Kd value (Table 4), and the fit scaled to the maximum mean value (FIG. 6d,e).

[2] = Chromophore titration with DFHBI; type: binding
Experimental: as §1

[3] = Absolute quantum yield (integrating sphere) and brightness; type: physicochemical
Experimental: Protein preparation. mFAP2a, mFAP2b and mFAP10 were produced by large-scale protein purification^9 and dialyzed overnight into DPBS that was adjusted to pH 7.40 using NaOH.
Chromophore preparation. DFHBI (Lucerna) and DFHBI-1T (Lucerna) were dissolved to 20.0 mM in 100% DMSO, and diluted in DPBS (pH 7.40) to measure absorbances on a Jasco V-750 spectrophotometer at peak absorbance wavelengths (417 nm for DFHBI and 422 nm for DFHBI-1T). Following background subtraction of identical buffer without chromophore, Beer's Law was used to calculate the molar chromophore concentrations of the stock solutions using previously reported extinction coefficients^5.
Preparation of protein-chromophore complexes. […]
Absolute quantum yield. […] Absolute quantum yields were measured for solutions of protein-chromophore complexes in DPBS (pH 7.40) in which ≥95% of the total chromophore was occupying the protein binding pocket (Table 4). Protein-chromophore complex samples and control samples were excited at λex=440 nm and absolute quantum yields were calculated according to the equation: […]
where fem is the emitted photon flux and fabs is the absorbed photon flux. […] Absolute quantum yield data was analyzed with U6039-05 PLQY measurement software (Table 4; FIG. 8).

Kd [1]: 45 nM
B1: mFAP10: canonical, single-chain mFAP, SEQ ID NO: 534 (protein)
chain: SRAAQLLPGTWQATFTNEDGQTSQGQIHFQPRSPYTMDIVAQGTISDGRPIVGYGKATVKTPDTLDIDITYPSLGNIKAQGQITMDSPTQFKFDATTKGENDFHGRLTGTLQRQE
higher affinity for DFHBI than DFHBI-1T [2]: ~2.6 fold
brighter fluorescence with DFHBI-1T than DFHBI [3]: ~12 fold
